# Test results as given in patent EP0896002A1, “CHIMERIC PROTEINS, HETERODIMER COMPLEXES THEREOF AND SUBSTITUTE FOR PLATELET” (TORAY INDUSTRIES, INC., priority 1997, dated 1998).
# Read-outs that look alike come from different tables or passages of the source.
# Target: T1, α4·IgG heavy chain-β1·IgG heavy chain chimeric protein heterodimer complex (integrin α4β1; sequence Nos. 1 and 2) (Homo sapiens, UniProt P05556+P13612)
# T1 construct: made in house; culture supernatant used in the assay
# Assay: Inhibition of the binding of the α4·IgG heavy chain-β1·IgG heavy chain chimeric protein heterodimer complex to solid-phase CS-1-IgG (peptide fragment of fibronectin), ELISA-type detection at 490 nm
# Conditions: for IC50: binding assay system of Example 9: binding to CS-1-IgG, cyclic phage-library peptides, read-out: Inhibitory activity IC50; for inhibition at 100 µg/mL: compound concentration 100 μg/ml; for inhibition at 100 µg/mL / inhibition at 50 µg/mL: read-out: Inhibition rate (%)
# Protocol: At first, according to the said report (Humphries, M. J. et al., J. Biol. Chem., 262, 6886-6892 (1987)), the peptide fragment of sequence No. 3 (CS-1 peptide) was bound to rabbit IgG (Sigma), to prepare CS-1-IgG. The CS-1-IgG was diluted by PBS(-), and put in a 96-well immunoplate (NUNC) by 100 µl/well, and allowed to stand at 4°C for 16 hours, to be formed as a solid phase on the plate.
# After completion of standing, the surface of the plate was washed with PBS(-) twice and treated with denatured 1% BSA(heat-natured at 80°C for 10 minutes)-PBS solution ( 300 µl/well) at 4°C for 3 hours to block the nonspecific reaction. Then, the solid phase CS-1-IgG and the CHO culture supernatant (100 µl) containing α4·IgG heavy chain-β1·IgG heavy chain chimeric protein heterodimer complex were reacted with each other at 30°C for 3 hours. The non-bound α4·IgG heavy chain-β1·IgG heavy chain chimeric protein heterodimer complex was removed by washing with 0.1% BSA-containing TBS buffer (150 mM NaCl, 25 mM Tris-HCl, 1 mM MnCl2, pH 7.4) twice, and the bound α4·IgG heavy chain-β1·IgG heavy chain chimeric protein heterodimer complex was detected by biotin labeled anti-human IgG antibody (Vector) as the primary antibody and avidin labeled horseradish peroxidase (Sigma) as the secondary antibody. The surface of the plate was washed with the TBS buffer. Orthophenylenediamine was added as a substrate to it for color development, and the absorbance at 490 nm were measured.
# The all peptides were synthesized by a peptide synthesizer. The peptide and 100 µl of CHO cultured supernatant solution containing αα4·IgG heavy chain-β1·IgG heavy chain chimeric protein heterodimer complex were mixed at room temperature for 20 minutes, and the binding to CS-1-IgG was determined according to the method in Example 9.
# At first, α4·IgG heavy chain-β1·IgG heavy chain chimeric protein heterodimer complex purified in Example 6, or human IgG was prepared at a proper concentration by PBS (-) and was coated on a plastic plate at 4°C for 16 hours, being formed as a solid phase on a plastic plate. Then, according to a report (Cott, J. K. and Smoth, G. P., Science, 249, 386-390 (1990)), a phage peptide library in which a random six amino acid residues were cyclyzed by the disulfide bond of cysteine at both the ends was prepared and suspended in 0.1% BSA-containing TBS buffer. The phage peptide library was reacted with human IgG at 30°C for 3 hours, to absorb phage peptides capable of being bound to IgG. Then, the non-absorbed phases were reacted with α4·IgG heavy chain-β1·IgG heavy chain chimeric protein heterodimer complex at 30°C for 3 hours, and the reaction mixture was washed with 0.1% BSA-containing TBS buffer twice to remove the phage peptides incapable of being bound to the heterodimer complex. Only the phage peptides capable of being bound were collected after elution with 0.1M glycine-hydrochloric acid (pH 2.2). After collection, the phage was amplified and the above mentioned binding operation was repeated further twice. The only the phage peptides capable of being bound to the heterodimer complex were selectively concentrated. In the final elution operation, phage peptides capable of being bound to the heterodimer complex were eluted using 10 mM EDTA and 0.1M glycine-hydrochloric acid in two steps, and the amino acid sequences of the respective peptides were analyzed. Furthermore, they were examined using the binding assay system of Example 9, and the IC50 values of the four peptide sequences showing binding inhibitory activity are shown in Table 1.
# Reagents and reported compounds were picked up at random, adjusted to a final concentration of 50 or 100 µg/ml, and added to the binding determination system in Example 9. Compounds showing inhibitory activity were obtained. […]
# [1] = binding determination system of Example 9 (CS-1-IgG)
# T1 sequence (P13612 35-977 limits assumed, change not shown): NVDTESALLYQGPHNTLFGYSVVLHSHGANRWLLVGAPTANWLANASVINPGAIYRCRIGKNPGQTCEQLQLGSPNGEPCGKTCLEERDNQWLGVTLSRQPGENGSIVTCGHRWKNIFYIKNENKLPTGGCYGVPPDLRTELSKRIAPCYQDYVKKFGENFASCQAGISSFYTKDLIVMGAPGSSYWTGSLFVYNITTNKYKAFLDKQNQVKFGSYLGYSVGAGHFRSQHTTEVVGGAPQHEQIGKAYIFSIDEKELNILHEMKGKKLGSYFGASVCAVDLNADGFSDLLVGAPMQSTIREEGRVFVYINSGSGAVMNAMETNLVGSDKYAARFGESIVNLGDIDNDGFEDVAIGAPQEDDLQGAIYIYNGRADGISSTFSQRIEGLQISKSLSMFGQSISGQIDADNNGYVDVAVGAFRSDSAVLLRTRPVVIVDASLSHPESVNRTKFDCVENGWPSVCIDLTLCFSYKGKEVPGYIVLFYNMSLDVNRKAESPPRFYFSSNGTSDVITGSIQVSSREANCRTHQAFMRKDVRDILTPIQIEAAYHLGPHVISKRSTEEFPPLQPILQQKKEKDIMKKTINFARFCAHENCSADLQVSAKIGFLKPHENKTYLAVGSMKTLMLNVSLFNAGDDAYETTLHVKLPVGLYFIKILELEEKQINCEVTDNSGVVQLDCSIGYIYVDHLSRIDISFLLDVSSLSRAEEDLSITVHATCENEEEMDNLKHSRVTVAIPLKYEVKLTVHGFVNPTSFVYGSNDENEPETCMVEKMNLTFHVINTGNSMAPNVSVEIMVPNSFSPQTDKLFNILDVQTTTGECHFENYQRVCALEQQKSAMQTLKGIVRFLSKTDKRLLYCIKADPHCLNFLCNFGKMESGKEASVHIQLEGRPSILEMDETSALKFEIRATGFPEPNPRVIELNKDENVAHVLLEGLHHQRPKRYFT
# T1 sequence (P05556 21-728 limits assumed, change not shown): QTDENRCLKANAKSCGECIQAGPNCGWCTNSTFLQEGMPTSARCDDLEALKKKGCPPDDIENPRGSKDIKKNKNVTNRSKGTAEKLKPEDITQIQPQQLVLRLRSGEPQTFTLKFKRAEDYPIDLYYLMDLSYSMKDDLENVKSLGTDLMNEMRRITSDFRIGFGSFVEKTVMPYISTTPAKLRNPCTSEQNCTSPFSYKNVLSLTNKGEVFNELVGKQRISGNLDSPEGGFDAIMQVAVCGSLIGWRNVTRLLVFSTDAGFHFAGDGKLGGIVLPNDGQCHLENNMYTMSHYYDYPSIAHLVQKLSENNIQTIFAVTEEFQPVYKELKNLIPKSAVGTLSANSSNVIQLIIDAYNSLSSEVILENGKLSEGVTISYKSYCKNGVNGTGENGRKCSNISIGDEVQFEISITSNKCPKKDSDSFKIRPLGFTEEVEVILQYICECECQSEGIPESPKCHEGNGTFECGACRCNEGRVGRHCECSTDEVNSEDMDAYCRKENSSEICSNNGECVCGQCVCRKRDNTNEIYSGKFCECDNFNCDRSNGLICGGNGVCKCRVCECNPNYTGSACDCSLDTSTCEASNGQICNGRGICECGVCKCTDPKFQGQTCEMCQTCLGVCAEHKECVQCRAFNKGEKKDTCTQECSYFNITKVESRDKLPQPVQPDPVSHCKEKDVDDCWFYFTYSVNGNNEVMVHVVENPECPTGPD
# T1 sequence (P01857 99-330 partner limits assumed): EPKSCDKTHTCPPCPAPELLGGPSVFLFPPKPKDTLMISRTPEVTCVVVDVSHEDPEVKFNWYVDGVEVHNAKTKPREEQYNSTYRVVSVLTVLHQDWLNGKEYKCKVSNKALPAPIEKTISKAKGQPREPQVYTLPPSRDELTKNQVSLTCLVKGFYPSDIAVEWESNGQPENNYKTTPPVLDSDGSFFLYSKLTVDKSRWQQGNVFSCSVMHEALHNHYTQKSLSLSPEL
Molecule,IC50,other results
Cys* Gly Leu Gln Ala Leu Pro Cys* (GLQALPC; printed: Gly Leu Gln Ala Leu Pro Cys) [Sequence No. 30],10000 nM,
Cys* Ile Pro Glu Leu Ile Val Cys* (IPELIVC; printed: Ile Pro Glu Leu Ile Val Cys) [Sequence No. 24],1200 nM,
O=C(O)CC12CC3CC(CC(C3)C1)C2 [1-Adamantaneacetic acid],,inhibition at 100 µg/mL [1]: 65%
Cys* Met Arg Tyr Thr Ser Ala Cys* (MRYTSAC; printed: Met Arg Tyr Thr Ser Ala Cys) [Sequence No. 25],2300 nM,
C#C[C@]1(O)CC[C@H]2[C@@H]3CCC4=C(CCC(=O)C4)[C@H]3CC[C@@]21C [Norethynodrel],,"inhibition at 50 µg/mL (compound concentration 50 μg/ml, binding determination system of Example 9 (CS-1-IgG)): 28%"
"O=C(O)CCCc1ccc2ccccc2c1 [γ-2-Naphtyl butyric acid, γ-2-Naphthyl butyric acid]",,inhibition at 100 µg/mL [1]: 37%
CC(C)(S)[C@@H](N)C(=O)O [D-Penicillamine],,inhibition at 50 µg/mL: 51%
Cys* Leu Arg Tyr Ser Val Pro Cys* (LRYSVPC; printed: Leu Arg Tyr Ser Val Pro Cys) [Sequence No. 28],1800 nM,
